Results taken from the Human Domainome abundance scans (Beltran et al. 2025).
± gives the uncertainty stated by the source.

B1: Protein C-ets-1, residues 55 to 135; numbered along this chain, P14921 (parent)
chain: GFTKEQQRLGIPKDPRQWTETHVRDWVMWAVNEFSLKGVDFQKFCMNGAALCALGKDCFLELAPDFVGDILWEHLEILQKE

Variants of: B1
Assay: abundance fitness (aPCA) (normalised: wild type 0, dead -1); higher = more abundant; growth selection in yeast, the domain comes from the species named
Settings: Homo sapiens

| Variant | abundance fitness |
| --- | --- |
| GFTKEQQRLGIPKDPRQWTETHVRDWVMWAVNEFSLKGVDFQKFCMNGAALCALGKDCFLELAPDFVVDILWEHLEILQKE [G68V] | -0.261 ± 0.026 |
| GFTKEQQRLGIPKDPRQWTETHVRDWVMWAVNEFSLKGVDFQKFCMNGAALCALGKDCFLELAPDFVNDILWEHLEILQKE [G68N] | -0.265 ± 0.09 |
| GFTKEQQRLGIPKDPRQWTETHVRDWVMWAVNEFSLKGVDFQKFCMNGAALCALGKDCFLELAPDFVTDILWEHLEILQKE [G68T] | -0.204 ± 0.052 |
| GFTKEQQRLGIPKDPRQWTETHVRDWVMWAVNEFSLKGVDFQKFCMNGAALCALGKDCFLELAPDFVYDILWEHLEILQKE [G68Y] | -0.654 ± 0.13 |
| GFTKEQQRLGIPKDPRQWTETHVRDWVMWAVNEFSLKGVDFQKFCMNGAALCALGKDCFLELAPDFVSDILWEHLEILQKE [G68S] | -0.124 ± 0.036 |
| GFTKEQQRLGIPKDPRQWTETHVRDWVMWAVNEFSLKGVDFQKFCMNGAALCALGKDCFLELAPDFVLDILWEHLEILQKE [G68L] | -0.549 ± 0.045 |
| GFTKEQQRLGIPKDPRQWTETHVRDWVMWAVNEFSLKGVDFQKFCMNGAALCALGKDCFLELAPDFVQDILWEHLEILQKE [G68Q] | -0.727 ± 0.11 |
| GFTKEQQRLGIPKDPRQWTETHVRDWVMWAVNEFSLKGVDFQKFCMNGAALCALGKDCFLELAPDFVWDILWEHLEILQKE [G68W] | -0.655 ± 0.087 |
| GFTKEQQRLGIPKDPRQWTETHVRDWVMWAVNEFSLKGVDFQKFCMNGAALCALGKDCFLELAPDFVGSILWEHLEILQKE [D69S] | -0.053 ± 0.035 |
| GFTKEQQRLGIPKDPRQWTETHVRDWVMWAVNEFSLKGVDFQKFCMNGAALCALGKDCFLELAPDFVGVILWEHLEILQKE [D69V] | -0.098 ± 0.041 |
| GFTKEQQRLGIPKDPRQWTETHVRDWVMWAVNEFSLKGVDFQKFCMNGAALCALGKDCFLELAPDFVGTILWEHLEILQKE [D69T] | -0.134 ± 0.055 |
| GFTKEQQRLGIPKDPRQWTETHVRDWVMWAVNEFSLKGVDFQKFCMNGAALCALGKDCFLELAPDFVGMILWEHLEILQKE [D69M] | -0.055 ± 0.065 |
| GFTKEQQRLGIPKDPRQWTETHVRDWVMWAVNEFSLKGVDFQKFCMNGAALCALGKDCFLELAPDFVGQILWEHLEILQKE [D69Q] | -0.03 ± 0.066 |
| GFTKEQQRLGIPKDPRQWTETHVRDWVMWAVNEFSLKGVDFQKFCMNGAALCALGKDCFLELAPDFVGNILWEHLEILQKE [D69N] | -0.002 ± 0.064 |
| GFTKEQQRLGIPKDPRQWTETHVRDWVMWAVNEFSLKGVDFQKFCMNGAALCALGKDCFLELAPDFVGRILWEHLEILQKE [D69R] | -0.09 ± 0.04 |
| GFTKEQQRLGIPKDPRQWTETHVRDWVMWAVNEFSLKGVDFQKFCMNGAALCALGKDCFLELAPDFVGLILWEHLEILQKE [D69L] | -0.057 ± 0.036 |
| GFTKEQQRLGIPKDPRQWTETHVRDWVMWAVNEFSLKGVDFQKFCMNGAALCALGKDCFLELAPDFVGWILWEHLEILQKE [D69W] | -0.262 ± 0.056 |

| Variant | abundance fitness |
| --- | --- |
| GFTKEQQRLGIPKDPRQWTETHVRDWVMWAVNEFSLKGVDFQKFCMNGAALCALGKDCFLELAPDFVGEILWEHLEILQKE [D69E] | -0.035 ± 0.062 |
| GFTKEQQRLGIPKDPRQWTETHVRDWVMWAVNEFSLKGVDFQKFCMNGAALCALGKDCFLELAPDFVGPILWEHLEILQKE [D69P] | 0.015 ± 0.049 |
| GFTKEQQRLGIPKDPRQWTETHVRDWVMWAVNEFSLKGVDFQKFCMNGAALCALGKDCFLELAPDFVGAILWEHLEILQKE [D69A] | -0.031 ± 0.037 |
| GFTKEQQRLGIPKDPRQWTETHVRDWVMWAVNEFSLKGVDFQKFCMNGAALCALGKDCFLELAPDFVGKILWEHLEILQKE [D69K] | -0.057 ± 0.067 |
| GFTKEQQRLGIPKDPRQWTETHVRDWVMWAVNEFSLKGVDFQKFCMNGAALCALGKDCFLELAPDFVGGILWEHLEILQKE [D69G] | -0.059 ± 0.031 |
| GFTKEQQRLGIPKDPRQWTETHVRDWVMWAVNEFSLKGVDFQKFCMNGAALCALGKDCFLELAPDFVGFILWEHLEILQKE [D69F] | -0.301 ± 0.066 |
| GFTKEQQRLGIPKDPRQWTETHVRDWVMWAVNEFSLKGVDFQKFCMNGAALCALGKDCFLELAPDFVGHILWEHLEILQKE [D69H] | -0.153 ± 0.083 |
| GFTKEQQRLGIPKDPRQWTETHVRDWVMWAVNEFSLKGVDFQKFCMNGAALCALGKDCFLELAPDFVGCILWEHLEILQKE [D69C] | -0.167 ± 0.063 |
| GFTKEQQRLGIPKDPRQWTETHVRDWVMWAVNEFSLKGVDFQKFCMNGAALCALGKDCFLELAPDFVGYILWEHLEILQKE [D69Y] | -0.038 ± 0.089 |
| GFTKEQQRLGIPKDPRQWTETHVRDWVMWAVNEFSLKGVDFQKFCMNGAALCALGKDCFLELAPDFVGIILWEHLEILQKE [D69I] | -0.038 ± 0.14 |
| GFTKEQQRLGIPKDPRQWTETHVRDWVMWAVNEFSLKGVDFQKFCMNGAALCALGKDCFLELAPDFVGDILDEHLEILQKE [W72D] | -1.07 ± 0.38 |
| GFTKEQQRLGIPKDPRQWTETHVRDWVMWAVNEFSLKGVDFQKFCMNGAALCALGKDCFLELAPDFVGDILHEHLEILQKE [W72H] | -0.361 ± 0.084 |
| GFTKEQQRLGIPKDPRQWTETHVRDWVMWAVNEFSLKGVDFQKFCMNGAALCALGKDCFLELAPDFVGDILCEHLEILQKE [W72C] | -0.62 ± 0.067 |
| GFTKEQQRLGIPKDPRQWTETHVRDWVMWAVNEFSLKGVDFQKFCMNGAALCALGKDCFLELAPDFVGDILLEHLEILQKE [W72L] | -0.316 ± 0.033 |
| GFTKEQQRLGIPKDPRQWTETHVRDWVMWAVNEFSLKGVDFQKFCMNGAALCALGKDCFLELAPDFVGDILFEHLEILQKE [W72F] | -0.098 ± 0.062 |
| GFTKEQQRLGIPKDPRQWTETHVRDWVMWAVNEFSLKGVDFQKFCMNGAALCALGKDCFLELAPDFVGDILIEHLEILQKE [W72I] | -1.06 ± 0.46 |
| GFTKEQQRLGIPKDPRQWTETHVRDWVMWAVNEFSLKGVDFQKFCMNGAALCALGKDCFLELAPDFVGDILAEHLEILQKE [W72A] | -0.52 ± 0.053 |
